For one experiment, the target named is 5P+V. Description: luminescence complementation.
Another experiment deals with 5P+VT. Description: luminescence complementation.
In the next experiment the target is 5P+VTG. Description: luminescence complementation.
Experiment [1] deals with T1, NLpoly 5A2 (G15A/G35A/G51A/G67A/G71A).
T1 chain: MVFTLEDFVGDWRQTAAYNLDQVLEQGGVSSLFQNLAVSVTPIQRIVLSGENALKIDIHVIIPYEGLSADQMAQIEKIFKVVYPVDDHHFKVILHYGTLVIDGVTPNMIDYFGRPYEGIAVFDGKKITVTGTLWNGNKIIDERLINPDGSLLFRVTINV
Description: luminescence complementation, one-site specific binding; replicate 1.

Experiment [2] has the same target. Description: luminescence complementation, one-site specific binding; replicate 2.
Experiment [3] has the same target. Briefly: luminescence complementation, one-site specific binding; replicate 3.
Experiment [4] deals with T2, wild-type non-luminescent polypeptide (WT fragment of residues 1-156 of NanoLuc).
T2 chain: T1 chain with A17G, A37G, A53G, A69G, A73G
Briefly: kinetics (koff/kon).

Another experiment deals with T3, NLpoly 11S (12-A51T).
T3 chain: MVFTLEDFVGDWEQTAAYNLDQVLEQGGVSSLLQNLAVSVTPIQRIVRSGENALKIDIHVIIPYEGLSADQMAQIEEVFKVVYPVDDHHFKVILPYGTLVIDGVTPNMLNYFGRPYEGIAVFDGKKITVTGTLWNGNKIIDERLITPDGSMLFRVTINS
Briefly: kinetics (koff/kon).

Experiment [5] has as its target T2, wild-type non-luminescent polypeptide …. Briefly: luminescence complementation; PBS.
Experiment [6] has the same target. Briefly: luminescence complementation; NanoGlo.
Experiment [7] shares this target. Description: luminescence complementation; average HeLa, HEK293, CHO lysates.

Changes are numbered by the printed parent chain.

As a reminder, the Kd is the free concentration of one partner at which half of the binding sites on the other are occupied at equilibrium, for simple one-to-one binding. High values mean lower affinity, low ones higher affinity. Turning to Ac-SGWRLFKKISN-NH2 [NLpep81], the dissociation constant (Kd) in the experiment with 5P+V came out at 0.15 µM; with 5P+VT, 0.218 µM; in the experiment with 5P+VTG, 0.283 µM.

For Ac-VSGWRLFKKIS-NH2 [NLpep86], the Kd in experiment [1] was 0.0991 µM; in experiment [2], 0.11 µM; in experiment [3], 0.0933 µM.

Take Ac-VSGWRLFKKISN-NH2 [NLpep80]: the Kd in the experiment with 5P+V is 0.0103 µM; with 5P+VT it was 0.0096 µM; in the experiment with 5P+VTG it was 0.0075 µM.

Turning to Ac-GWRLFKKISN-NH2 [NLpep82], the dissociation constant (Kd) with 5P+V amounted to 0.128 µM; with 5P+VT, 0.198 µM; with 5P+VTG it was 0.273 µM.

For the molecule NVTGYRLFKKISN [NLpep79], the Kd in [4] stood at 5580 µM; with NLpoly 11S (12-A51T), 42 µM; in experiment [5] it was 0.487 µM; in experiment [6] it was 2.89 µM; in experiment [7], 5.13 µM.

As for GVTGWRLCERILA [NLpepWT], the equilibrium dissociation constant (Kd) with NLpoly 11S (12-A51T) was found to be 629 µM; in [5] it was 1.34 µM; in [6] it was 20.6 µM; in experiment [7], 8.35 µM.
